Test results taken from US20110229560.

T1: NLRC5-D1, containing the CARD and NOD domains (aa 1-517)
T1 chain: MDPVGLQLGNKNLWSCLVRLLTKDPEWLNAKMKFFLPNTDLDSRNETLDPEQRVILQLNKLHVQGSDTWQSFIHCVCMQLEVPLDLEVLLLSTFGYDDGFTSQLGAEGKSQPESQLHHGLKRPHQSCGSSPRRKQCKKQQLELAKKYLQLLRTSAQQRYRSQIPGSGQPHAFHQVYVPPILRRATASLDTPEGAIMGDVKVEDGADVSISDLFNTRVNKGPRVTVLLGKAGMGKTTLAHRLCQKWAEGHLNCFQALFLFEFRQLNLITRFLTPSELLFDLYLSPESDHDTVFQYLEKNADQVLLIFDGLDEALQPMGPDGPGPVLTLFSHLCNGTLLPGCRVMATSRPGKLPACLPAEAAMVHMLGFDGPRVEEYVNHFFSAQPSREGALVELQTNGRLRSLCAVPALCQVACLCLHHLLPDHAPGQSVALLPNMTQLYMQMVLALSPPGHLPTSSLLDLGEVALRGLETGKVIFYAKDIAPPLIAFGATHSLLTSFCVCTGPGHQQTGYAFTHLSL

T2: NLRC5-D2, containing the LRR-R1 (aa 651-898)
T2 chain: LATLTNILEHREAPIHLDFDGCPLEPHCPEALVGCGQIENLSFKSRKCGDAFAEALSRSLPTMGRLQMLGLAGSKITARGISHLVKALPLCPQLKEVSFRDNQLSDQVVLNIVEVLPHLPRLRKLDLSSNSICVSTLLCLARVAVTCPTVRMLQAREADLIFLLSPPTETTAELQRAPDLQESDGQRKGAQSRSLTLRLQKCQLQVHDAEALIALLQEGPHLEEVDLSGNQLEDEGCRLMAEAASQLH

T3: NLRC5-D4, containing the CARD domain and LRR-R3 (aa 1-215 plus 1471-1866)
T3 chain: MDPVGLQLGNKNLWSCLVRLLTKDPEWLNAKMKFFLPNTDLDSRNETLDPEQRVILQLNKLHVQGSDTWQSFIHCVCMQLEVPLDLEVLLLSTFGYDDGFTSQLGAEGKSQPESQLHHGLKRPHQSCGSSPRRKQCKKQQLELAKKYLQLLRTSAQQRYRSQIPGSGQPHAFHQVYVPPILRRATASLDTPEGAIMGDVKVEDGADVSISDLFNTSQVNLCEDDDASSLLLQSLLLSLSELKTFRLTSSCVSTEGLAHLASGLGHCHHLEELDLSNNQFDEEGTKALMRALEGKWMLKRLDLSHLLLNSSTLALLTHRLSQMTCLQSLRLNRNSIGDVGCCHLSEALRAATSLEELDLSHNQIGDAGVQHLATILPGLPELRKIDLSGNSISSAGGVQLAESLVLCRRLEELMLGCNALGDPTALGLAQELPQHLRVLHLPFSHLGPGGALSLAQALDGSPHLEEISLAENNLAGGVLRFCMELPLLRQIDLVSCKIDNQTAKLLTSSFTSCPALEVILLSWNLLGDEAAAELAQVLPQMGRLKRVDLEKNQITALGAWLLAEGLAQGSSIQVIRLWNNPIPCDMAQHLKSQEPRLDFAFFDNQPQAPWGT

T4: NLRC5-D3, containing the link region and LRR-R2 (aa 900-1329)
T4 chain: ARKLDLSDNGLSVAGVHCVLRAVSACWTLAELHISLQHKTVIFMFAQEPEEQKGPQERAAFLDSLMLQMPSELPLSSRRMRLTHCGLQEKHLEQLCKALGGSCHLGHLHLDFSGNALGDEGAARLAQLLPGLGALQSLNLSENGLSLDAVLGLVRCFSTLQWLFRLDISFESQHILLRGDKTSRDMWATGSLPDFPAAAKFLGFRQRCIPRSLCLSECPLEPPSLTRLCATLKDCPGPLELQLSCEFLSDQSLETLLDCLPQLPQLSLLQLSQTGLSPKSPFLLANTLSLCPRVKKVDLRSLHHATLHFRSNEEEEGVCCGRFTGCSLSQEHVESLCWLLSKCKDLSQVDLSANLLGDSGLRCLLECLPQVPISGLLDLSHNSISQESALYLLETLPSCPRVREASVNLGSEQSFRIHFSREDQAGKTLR

B1: Flag-tagged IKKβ (full length) (protein)
chain: MSWSPSLTTQTCGAWEMKERLGTGGFGNVIRWHNQETGEQIAIKQCRQELSPRNRERWCLEIQIMRRLTHPNVVAARDVPEGMQNLAPNDLPLLAMEYCQGGDLRKYLNQFENCCGLREGAILTLLSDIASALRYLHENRIIHRDLKPENIVLQQGEQRLIHKIIDLGYAKELDQGSLCTSFVGTLQYLAPELLEQQKYTVTVDYWSFGTLAFECITGFRPFLPNWQPVQWHSKVRQKSEVDIVVSEDLNGTVKFSSSLPYPNNLNSVLAERLEKWLQLMLMWHPRQRGTDPTYGPNGCFKALDDILNLKLVHILNMVTGTIHTYPVTEDESLQSLKARIQQDTGIPEEDQELLQEAGLALIPDKPATQCISDGKLNEGHTLDMDLVFLFDNSKITYETQISPRPQPESVSCILQEPKRNLAFFQLRKVWGQVWHSIQTLKEDCNRLQQGQRAAMMNLLRNNSCLSKMKNSMASMSQQLKAKLDFFKTSIQIDLEKYSEQTEFGITSDKLLLAWREMEQAVELCGRENEVKLLVERMMALQTDIVDLQRSPMGRKQGGTLDDLEEQARELYRRLREKPRDQRTEGDSQEMVRLLLQAIQSFEKKVRVIYTQLSKTVVCKQKALELLPKVEEVVSLMNEDEKTVVRLQEKRQKELWNLLKIACSKVRGPVSGSPDSMNASRLSQPGQLMSQPSTASNSLPEPAKKSEELVAEAHNLCTLLENAIQDTVREQDQSFTALDWSWLQTEEEEHSCLEQAS
B2: Flag-tagged IKKα (protein)
chain: MERPPGLRPGAGGPWEMRERLGTGGFGNVCLYQHRELDLKIAIKSCRLELSTKNRERWCHEIQIMKKLNHANVVKACDVPEELNILIHDVPLLAMEYCSGGDLRKLLNKPENCCGLKESQILSLLSDIGSGIRYLHENKIIHRDLKPENIVLQDVGGKIIHKIIDLGYAKDVDQGSLCTSFVGTLQYLAPELFENKPYTATVDYWSFGTMVFECIAGYRPFLHHLQPFTWHEKIKKKDPKCIFACEEMSGEVRFSSHLPQPNSLCSLVVEPMENWLQLMLNWDPQQRGGPVDLTLKQPRCFVLMDHILNLKIVHILNMTSAKIISFLLPPDESLHSLQSRIERETGINTGSQELLSETGISLDPRKPASQCVLDGVRGCDSYMVYLFDKSKTVYEGPFASRSLSDCVNYIVQDSKIQLPIIQLRKVWAEAVHYVSGLKEDYSRLFQGQRAAMLSLLRYNANLTKMKNTLISASQQLKAKLEFFHKSIQLDLERYSEQMTYGISSEKMLKAWKEMEEKAIHYAEVGVIGYLEDQIMSLHAEIMELQKSPYGRRQGDLMESLEQRAIDLYKQLKHRPSDHSYSDSTEMVKIIVHTVQSQDRVLKELFGHLSKLLGCKQKIIDLLPKVEVALSNIKEADNTVMFMQGKRQKEIWHLLKIACTQSSARSLVGSSLEGAVTPQTSAWLPPTSAEHDHSLSCVVTPQDGETSAQMIEENLNCLGHLSTIIHEANEEQGNSMMNLDWSWLTE

Legend:
[1] = biological target: T1, NLRC5-D1, containing the CARD and NOD …
[2] = biological target: T2, NLRC5-D2, containing the LRR-R1 (aa …)
[3] = biological target: T3, NLRC5-D4, containing the CARD domain …
[4] = biological target: T4, NLRC5-D3, containing the link region …

Protein | phosphorylation of IKKβ [1] | phosphorylation of IKKβ [2] | phosphorylation of IKKβ [3] | phosphorylation of IKKβ [4] | phosphorylation of IKKα [1] | phosphorylation of IKKα [2] | phosphorylation of IKKα [3] | phosphorylation of IKKα [4]
B1 | NLRC5-D1, -D2 and -D4 produced little or only slight inhibition | NLRC5-D1, -D2 and -D4 produced little or only slight inhibition | NLRC5-D1, -D2 and -D4 produced little or only slight inhibition | NLRC5-D3 strongly inhibited IKKα and IKKβ phosphorylation | – | – | – | –
B2 | – | – | – | – | NLRC5-D1, -D2 and -D4 produced little or only slight inhibition | NLRC5-D1, -D2 and -D4 produced little or only slight inhibition | NLRC5-D1, -D2 and -D4 produced little or only slight inhibition | NLRC5-D3 strongly inhibited IKKα and IKKβ phosphorylation
